In the test the target is human TIGIT expressed on HEK293A cells (human) (UniProt Q495A1). The test is described as follows: cell-based or functional assay.

Among the data in patent US20220396617A1 are NK92-mediated ADCC against HEK293A/human TIGIT cells, EC50 values, retold here.

Sequence of human TIGIT expressed on HEK293A cells (human) (Q495A1 22-244 limits assumed): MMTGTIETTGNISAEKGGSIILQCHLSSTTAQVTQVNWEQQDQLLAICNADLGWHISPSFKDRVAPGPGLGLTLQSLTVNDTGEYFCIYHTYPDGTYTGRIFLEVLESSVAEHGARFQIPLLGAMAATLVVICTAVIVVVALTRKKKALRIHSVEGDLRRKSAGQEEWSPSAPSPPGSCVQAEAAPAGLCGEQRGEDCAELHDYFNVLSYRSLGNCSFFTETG

B1: Etigilimab (antibody, INN chains, looked up, human IgG1, V domains shown)
VH: QVQLQESGPGLVKPSETLSLTCAVSGYSITSDYAWNWIRQPPGKGLEWIGYISYSGSTSYNPSLRSRVTISRDTSKNQFFLKLSSVTAADTAVYYCARRQVGLGFAYWGQGTLVTVSS
VL: DIQMTQSPSSLSASVGDRVTITCKASQDVSTAVAWYQQKPGKAPKLLIYSASYRYTGVPSRFSGSGSGTDFTFTISSLQPEDIATYYCQQHYSTPWTFGQGTKVEIK
B1 came in with an NK92-mediated ADCC against HEK293A/human TIGIT cells, EC50 of 0.0236 nM.
